Measured values as given in paper PMC3184163, “The Amino-Terminus of Nitric Oxide Sensitive Guanylyl Cyclase α1 Does Not Affect Dimerization but Influences Subcellular Localization” (PLoS ONE, 2011).

Key:
[1] = molecular target: T1, nitric oxide sensitive guanylyl cyclase β1-subunit with carboxy-terminal Strep Tag II, P20595; test: pull-down; co-purification: α1 variant expressed with carboxy-terminally Strep Tag II tagged β1 in Sf-9; cytosolic fraction applied to Strep-Tactin Superflow resin; buffer W 100 mM Tris-HCl, 1 M NaCl, 1 mM EDTA, 1 mM benzamidine, 10 mM DTT, pH 8.0; eluted with 2.5 mM D-desthiobiotin; on ice or at …
T1 chain: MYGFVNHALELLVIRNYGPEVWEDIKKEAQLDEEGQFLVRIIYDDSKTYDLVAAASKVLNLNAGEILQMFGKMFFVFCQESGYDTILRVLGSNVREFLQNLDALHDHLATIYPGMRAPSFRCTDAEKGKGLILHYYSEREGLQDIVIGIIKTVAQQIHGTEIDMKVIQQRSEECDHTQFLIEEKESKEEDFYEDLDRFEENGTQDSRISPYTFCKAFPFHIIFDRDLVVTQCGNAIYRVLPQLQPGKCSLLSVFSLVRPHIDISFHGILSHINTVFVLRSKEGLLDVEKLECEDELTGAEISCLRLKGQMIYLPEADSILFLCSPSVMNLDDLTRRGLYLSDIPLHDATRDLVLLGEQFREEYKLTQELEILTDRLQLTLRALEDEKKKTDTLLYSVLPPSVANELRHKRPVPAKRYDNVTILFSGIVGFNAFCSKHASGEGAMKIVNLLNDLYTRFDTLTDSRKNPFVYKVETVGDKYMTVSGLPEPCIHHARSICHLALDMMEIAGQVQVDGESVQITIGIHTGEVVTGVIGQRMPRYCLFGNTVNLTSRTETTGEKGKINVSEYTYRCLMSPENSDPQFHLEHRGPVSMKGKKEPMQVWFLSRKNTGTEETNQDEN

[2] = molecular target: T2, nitric oxide sensitive guanylyl cyclase β1-subunit with carboxy-terminal Strep Tag II (UniProt P20595 1-619); test: pull-down; co-purification: α1 variant expressed with carboxy-terminally Strep Tag II tagged β1 in Sf-9; cytosolic fraction applied to Strep-Tactin Superflow resin; buffer W 100 mM Tris-HCl, 1 M NaCl, 1 mM EDTA, 1 mM benzamidine, 10 mM DTT, pH 8.0; eluted with 2.5 mM D-desthiobiotin; on ice or at 4°C; SDS-PAGE, Coomassie staining, densitometry; cells also cultured without supplement, with hemin (4 mg/l), or with …; conditions: partners not purified
T2 construct: β1-subunit of nitric oxide sensitive guanylyl cyclase; PvuI/StuI fragment of the conjoined construct β1α1-Strep [27] in pFastBac1; predicted 72.2 kDa with tag; also called Strep tagged β1-subunit; source: Sf-9, recombinant baculovirus, cytosolic fraction; purified on Strep-Tactin Superflow; not shown: Strep Tag II, C-terminal, kept
T2 sequence (looked up): T1 chain

B1: C-α1 splice variant of the nitric oxide sensitive guanylyl cyclase α1-subunit (human α1ΔN259) (domain or fragment, UniProt Q02108-1 259-690, looked up)
chain: MKSTKPSLSPSKPQSSLVIPTSLFCKTFPFHFMFDKDMTILQFGNGIRRLMNRRDFQGKPNFEEYFEILTPKINQTFSGIMTMLNMQFVVRVRRWDNSVKKSSRVMDLKGQMIYIVESSAILFLGSPCVDRLEDFTGRGLYLSDIPIHNALRDVVLIGEQARAQDGLKKRLGKLKATLEQAHQALEEEKKKTVDLLCSIFPCEVAQQLWQGQVVQAKKFSNVTMLFSDIVGFTAICSQCSPLQVITMLNALYTRFDQQCGELDVYKVETIGDAYCVAGGLHKESDTHAVQIALMALKMMELSDEVMSPHGEPIKMRIGLHSGSVFAGVVGVKMPRYCLFGNNVTLANKFESCSVPRKINVSPTTYRLLKDCPGFVFTPRSREELPPNFPSEIPGICHFLDAYQQGTNSKPCFQKKDVEDGNANFLGKASGID
notes: α1-subunit of nitric oxide sensitive guanylyl cyclase, human, amino-terminal deletion α1ΔN259; predicted 48 kDa; The name ΔN259 could also be read as loss of the first 259 residues; also called C-α1-splice form; source: Sf-9, recombinant baculovirus, cytosolic fraction; co-purified with β1-S on Strep-Tactin
- relative heterodimerization by densitometry (% of α1WT) [1]: 166.2 % (±12.2 %)
- ratio of band intensities of the α1 variant to β1 [2]: 0.75

B2: nitric oxide sensitive guanylyl cyclase α1-subunit, wild type (human) (natural protein, UniProt Q02108-1 1-690, looked up)
chain: MFCTKLKDLKITGECPFSLLAPGQVPNESSEEAAGSSESCKATVPICQDIPEKNIQESLPQRKTSRSRVYLHTLAESICKLIFPEFERLNVALQRTLAKHKIKESRKSLEREDFEKTIAEQAVAAGVPVEVIKESLGEEVFKICYEEDENILGVVGGTLKDFLNSFSTLLKQSSHCQEAGKRGRLEDASILCLDKEDDFLHVYYFFPKRTTSLILPGIIKAAAHVLYETEVEVSLMPPCFHNDCSEFVNQPYLLYSVHMKSTKPSLSPSKPQSSLVIPTSLFCKTFPFHFMFDKDMTILQFGNGIRRLMNRRDFQGKPNFEEYFEILTPKINQTFSGIMTMLNMQFVVRVRRWDNSVKKSSRVMDLKGQMIYIVESSAILFLGSPCVDRLEDFTGRGLYLSDIPIHNALRDVVLIGEQARAQDGLKKRLGKLKATLEQAHQALEEEKKKTVDLLCSIFPCEVAQQLWQGQVVQAKKFSNVTMLFSDIVGFTAICSQCSPLQVITMLNALYTRFDQQCGELDVYKVETIGDAYCVAGGLHKESDTHAVQIALMALKMMELSDEVMSPHGEPIKMRIGLHSGSVFAGVVGVKMPRYCLFGNNVTLANKFESCSVPRKINVSPTTYRLLKDCPGFVFTPRSREELPPNFPSEIPGICHFLDAYQQGTNSKPCFQKKDVEDGNANFLGKASGID
notes: predicted 77.6 kDa; also called α1WT; α1 full-length; source: Sf-9, recombinant baculovirus, cytosolic fraction; co-purified with β1-S on Strep-Tactin
- ratio of band intensities of the α1 variant to β1 [2]: 0.43
